This sample holds only a part of the variants without activity.
B1: TPR 5TU (parent)
chain: GGAUCUUCUCGAUCUAACAAAAAAGACAAAUCUGCCACAAAGCUUGAGAGCAUCUUCGGAUGCAGAGGCGGCAGCCUUCGGUGGCGCGAUAGCGCCAACGUUCUCAACUAUGACACGCAAAACGCGUGCUCCGUUGAAUGGAGUUUAUCAUG

Variants of: B1
Assay: polymerase ribozyme fitness, log enrichment relative to wild type (log ratio); higher = more active; in vitro selection for triplet polymerase activity
How it was run: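 Fitness is a logarithmic measure of how a genotype enriched relative to the wild type, with replicate averages weighted by inverse variance. The logarithm uses base 2, and enrichment came from Illumina sequencing of input and output libraries. Those libraries were PCR-built, transcribed mutants of each subunit of a heterodimeric triplet polymerase ribozyme, passed through one triplicate in vitro selection round that included frozen incubation at −7 °C, gel excision of extended constructs and streptavidin-bead capture. Genotypes were kept only if they had ≥10 input reads and ≥1 read per output.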

Variant | polymerase ribozyme fitness (log ratio)
GGAUCUUCUCGAUCUAACAAAAAAGACAAAUCUGCCACAAAGCUUGAGAGCAACUUCGGAUGCAGAGGCGGCAGUCUUCGGUGGCGCGAUAGCGCCAACGUUUUCAACUAUGACACGCAAAACGCGUGCUCCGUUGAAUGGAGUUUAUCAUG [U53A C75U C103U] | -3.14
GGAUCUUCUCGAUCUAACAAAAAAGACGAAUCUGCCACAAAGCGUGAGAGUAUCUUCGGAUGCAGAGGCGGCAGAGUUCGGUGUCGCGAUAGCGCCAACGUUCUCAACUAUGACACGCAAAACGCGUGCUCCGUUGAAUAGAGUUUAUCAUG [A28G U44G C51U C75A C76G G84U G140A] | ≤ -4.2
GGAUCUUCUCGAUCUAACAAAAAAGACAAAUCUGCCACAAAGCUUGAGAGCAUCUUCGGAUACAGAGGCGGCCGCCUUCGGUGGCGGGAUAGCGCCAACGUUCUCAACUAUGACACGCAAAACGCGUGCUCCGUUGAAUGGAGUUUAUCAUG [G62A A73C C87G] | ≤ -4.2
GGAUCUUCUCGAUCUAACGAAAAAGACAUAUCUGCCACAAAGCUUGAGGGCAUCUUCGGAUGCAGAGGCGGCAGCCUUCGGUGGCGCGAUAGCGCCAACGUUCUCAACUAUGACACGUAAAACGCGUGCUCCGUUGAAUGGAGUUUAUCAUG [A19G A29U A49G C118U] | ≤ -4.2
GGAUCUUCUCGAUCUAACAAAAAAGACAAUUCUGCCACAAAGCUUGAGAGCAUCUUCGGAUGCAGAGGCGGCAGCCUUCGGUGGCGCGAUAGCGCCAACGUUCUCAACUAUGACACGCAAAACGCGUGCUCCGUUGAAUGGAGUUUAUCAUG [A30U] | -2.87
GGAUCUUCUCGAUCUAAGAAAAAAGACAAAUCUGCCACAAAGCUUGAGAGCAACUUCGGAAGCAGAGGCGGCAGCCUUCGGUGGCGCGAUAGCGCCAACGUUCUCAACUAUGACACGCAAAACGCGUGCUCCGUUGCAUGGAGUUUAUCAUG [C18G U53A U61A A137C] | ≤ -4.2
GGAUCUUCUCGAUCUAACAAAAAAGACAAAUCUGCCACAAAGCUUGAGAGUAUCUUCGGAUGCAGAGGCGGCAGCCUUCGGUGGCGCGAUAGCGCCAACGUUCUCAACUGUGACACGCAAAACGCGUGCUCCGUUGAAUGGAGUUUAUCAUG [C51U A110G] | -3.47
GGAUCUUCUCGAUCUAACAAACAAGACAAAUCUGCCACAAAGCUUGAGAGCAUCUUCGGAUGCAGAGGCGGCAGCCUUCGGUGGCGCGAUAGCGUCAACGUUCUCAACUAUGACACGCAAAACGCGUGCUCCGUUGAUUGGAGUUUAUCAUG [A22C C95U A138U] | ≤ -4.2
GGAUCUUCUCGAUCUAACAAAAAAGACAUAUCUGCCACGAAGCUUGAGAGCAUCAUCGGAUGCAGAGGCGGCAGCCUUCGGUGGCGCGAUAACGCCAACGUUCUCAACUAUGACACGCAAAACGCGUGCUCCGUUGAAUGGAGUUUAUCAUG [A29U A39G U55A G92A] | ≤ -4.2
GGAUCUUCUCGAUCUUACAAAAAAGACAAAUCUGCCACAAAGCUUGAGAGCAUCUUCGGAUGCAGAGGCGGCAGUCUUCGGUGGCACGAUAGCGCCAACGUUCUCAACUAUGACACGCAAAACGCGUGCUCCGUUGAAUGGAGUUUAUCAUG [A16U C75U G86A] | -2.59
GGAUCUUCUCGAUCUAACAAAAAAGACAAAUCUGCCACAAUGCUUGAGAGCAUCUUCGGAUGCAGAGGCGGCAGCCAUCGGUGGCGCGAUAGCGCCAACGUUCUCAACUAUGACACGCAAAACGCGUGCUCCGUUGAAUGGAGUUUAUCAUG [A41U U77A] | ≤ -4.2
GGAUCUUCUCGAUCUAACAAAAAAGACAAAUCUGCCACAAAGCUUGAGCGCAUCUUCGGAUGCAGAGGCGGCAGCCUUCGGUGGCGCGAUAGCGCCAAUGUGCUCAACAAUGACACGCAAAACGCGUGCUCCGUUGAAUGGAGUUUAUCAUG [A49C C99U U102G U109A] | -2.46
GGAUCUUCUCGAUCUAACAAAAAAGACAAAUCUGCCACCAAGCUUGAGAGCAUCUUCGGAAGCAGAGGCGGCAGCCUUCGGUGGCGUGAUAGCUCCAACGCUCUCAACUAUGACACGCAAAACGCGUGCUCCGUUGAAUGGAGUUUUUCAUG [A39C U61A C87U G94U U101C A147U] | ≤ -4.2
GGAUCUUCUCGAUCUAACAAAAAAGACAAAUCUGCCACAAAGCUUGAGAGCAUCUUCGGAUGCAGACCCGGCAGCCUUCGGUGGCGCGAUAGCGCCAACGUUCUCAACUAUGACACGUAGAACGCGUGCUCCGUUGAAUGGAGUUUAUCAUG [G67C G68C C118U A120G] | ≤ -4.2
GGAUCUUCUCGAUCUAACCAAAAAGACAAAUCUGCCACAAAGCUUGAGAGCAUCUUCGGAUGCAUAGGCGGCUGCCUUCGGUGGCGCAAUAGCGCCAACGUUCUCAACUAUGAAACGCAAAACGCGUGCUCCGUUGAAUGGAGUUUACCAUG [A19C G65U A73U G88A C114A U148C] | ≤ -4.2
GGAUCUUCUCGAUCUAACAUAAAAGACAAAUCUGCCACAAAGCUUGAGAGCAUCUUCGGAUGCAGAGGCGGCAGCCUUCGGUGGCGCGAUUGCGCCAACGUUCUCAACUAUGACUCGCAAAACGCGUGCUCCGUUGAAUGGAGUUUAUCAUG [A20U A91U A115U] | -4.17
GGAUAUUCUCGAUCUAACAAAAAAGACAAAUCUGCCACAAAGCUUGAGAGCAUCUUCGGAUGCAGAGGCGGCAGCCUUCGGUGGCGCGAUUGCGCCAACGUUCUCAACUAUGACACGCAAAACGCGUGCUCCGUUGAAUGGAGUUUAUCAUG [C5A A91U] | -4.1
GGAUCUUCUCGAUCUAACAAAAAAGACAAAUCUGCCACAAAGCUUGAGAUCGUCUUCGGAUGCAGAGGCGGCAGCCUUCGGUGGCGCGAUAGCGCCAAGGUUCUCAACUAUGACACGCAAAACGCGUGCUCCGUUGAAUGGAGUUUAUCAUG [G50U A52G C99G] | -2.55
GGAUCUUCUCGAUCUAACAAAAAAGACAAAUCCGCCCCAAAGCUUGAGAGCAUCUUCGGAUGCUGAGGCGGCAGCCUUCGGUGGCGCGAUAGCGCCAACGUUCUCAACUAUGACACGCAAAACGCGUGCUCCGUUGAAUGGAGUUUAUCAUG [U33C A37C A64U] | ≤ -4.2

Source: the RNAGym collection of RNA variant scans (doi:10.1073/pnas.2313332121)
